Test results as given in the supplement of paper PMC7125110.
± gives the standard error. Fewer inactive variants are shown than the library holds.

B1: glmS ribozyme (parent)
chain: AUAAAAGCGCCAGAACUACAGAAAUGUAGUUGACGAGGAGGAGGUUUAUCGAAUUUUCGGCGGAUGCCUCCAAA

Assays:
Details in all cases: with glucosamine-6-phosphate
glucosamine-6-phosphate [1] = variants of: B1; assay: self-cleavage kobs at 640 uM GlcN6P; higher = faster cleavage; RNA array
Procedure, shortened: (§1)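 Tiles bearing barcoded ribozyme variants, transcribed in situ by E. coli RNA polymerase on sequenced MiSeq chips, were imaged over ~14 h at 37 °C using a hybridised Cy3 probe. Glucosamine-6-phosphate was supplied at 40 μM to 10 mM in HEPES/KCl/Mg(OAc)2 buffer. kobs came from one- or two-exponential decay fits to normalised per-tile medians, and weighted Michaelis–Menten fits then provided kcat and KM.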

glucosamine-6-phosphate [2] = variants of: B1; assay: self-cleavage kobs at 2500 uM GlcN6P; higher = faster cleavage; RNA array
Procedure, shortened: as §1

glucosamine-6-phosphate [3] = variants of: B1; assay: self-cleavage kobs at 10000 uM GlcN6P; higher = faster cleavage; RNA array
Procedure, shortened: as §1

Row | Variant | self-cleavage kobs at 640 uM GlcN6P (glucosamine-6-phosphate [1]) | self-cleavage kobs at 2500 uM GlcN6P (glucosamine-6-phosphate [2]) | self-cleavage kobs at 10000 uM GlcN6P (glucosamine-6-phosphate [3])
1 | A15G U30A C67A C70U | 0.000654 ± 0.00016 s⁻¹ | 9.99e-05 ± 4.6e-05 s⁻¹ | 0.00115 ± 0.00026 s⁻¹
2 | U55G U56A G60U C71U | < 1e-05 s⁻¹ |  | 
3 | A15C G32U U55G C58G U69G | 0.000909 ± 0.00036 s⁻¹ |  | 
4 | U46C U69G | 8.03e-05 ± 1.7e-05 s⁻¹ | 0.000153 ± 2.7e-05 s⁻¹ | 
5 | C8U U31G G35U G44A C70U | < 1e-05 s⁻¹ | < 1e-05 s⁻¹ | 
6 | C10A U31A U56C | < 1e-05 s⁻¹ | < 1e-05 s⁻¹ | < 1e-05 s⁻¹
7 | G13A C16G A36C G41U A52U | < 1e-05 s⁻¹ |  | 
8 | G51U U55C G62A G66C C67U |  | < 1e-05 s⁻¹ | 
9 | A15G C16A C58A A64U C70U | 8e-05 ± 1.9e-05 s⁻¹ |  | 
10 | A42G U55G A64G C71G | 0.000116 ± 3.7e-05 s⁻¹ | 5.98e-05 ± 2e-05 s⁻¹ | 
11 | A36C A42G G43A C67G | < 1e-05 s⁻¹ |  | 
12 | U55A C67A C68U | 8.42e-05 ± 2.6e-05 s⁻¹ | 0.000218 ± 4e-05 s⁻¹ | 0.000108 ± 2.8e-05 s⁻¹
13 | A15U A36C U56G U69A | 7.26e-05 ± 3.4e-05 s⁻¹ |  | 
14 | A6U C11G C68A C70G | < 1e-05 s⁻¹ | < 1e-05 s⁻¹ | 
15 | A14U G29A U47G C50U A53C C70G | 0.00022 ± 4.5e-05 s⁻¹ | 0.000165 ± 3.4e-05 s⁻¹ | 
16 | A12G U55A | 0.000161 ± 2.2e-05 s⁻¹ | 0.000248 ± 4e-05 s⁻¹ | 0.00094 ± 8.5e-05 s⁻¹

Row | Variant | self-cleavage kobs at 640 uM GlcN6P (glucosamine-6-phosphate [1]) | self-cleavage kobs at 2500 uM GlcN6P (glucosamine-6-phosphate [2]) | self-cleavage kobs at 10000 uM GlcN6P (glucosamine-6-phosphate [3])
17 | A14U A33U A53C G63U |  | < 1e-05 s⁻¹ | 
18 | C34A G35U A36U | < 1e-05 s⁻¹ |  | < 1e-05 s⁻¹
19 | C50U U56G C70G | 0.000278 ± 8e-05 s⁻¹ | 0.000251 ± 5.8e-05 s⁻¹ | 
20 | C8U A53G U55A C68G | 0.000442 ± 0.00017 s⁻¹ |  | 
21 | C50G C61U C67U | 0.000213 ± 4.4e-05 s⁻¹ |  | 
22 | C11U U31C G41C U49C G62A | < 1e-05 s⁻¹ |  | 
23 | G41C U46A G60C | < 1e-05 s⁻¹ | < 1e-05 s⁻¹ | 
24 | C10A C16U G35A | < 1e-05 s⁻¹ | < 1e-05 s⁻¹ | 
25 | U46A U47C C70A | 9.01e-05 ± 2.2e-05 s⁻¹ | 0.000206 ± 3.7e-05 s⁻¹ | 
26 | C8G G13A U56C | < 1e-05 s⁻¹ |  | 
27 | C11G C71G | 0.000382 ± 0.00018 s⁻¹ |  | 
28 | A6G G37U U47G C50G C58G C67A | 7e-05 ± 2.9e-05 s⁻¹ |  | 
29 | G29C A36C C61A | < 1e-05 s⁻¹ | < 1e-05 s⁻¹ | 
30 | C10A C11G G35C G44C | < 1e-05 s⁻¹ | < 1e-05 s⁻¹ | 
31 | A6U G29A G37A G38A A42C G43U G62U C70U | < 1e-05 s⁻¹ | < 1e-05 s⁻¹ | 
32 | G7C C11U G59U C61U | < 1e-05 s⁻¹ |  | 
